{"source": "paper PMC4227783", "binders": {"B1": {"name": "regular 13-mer telomeric oligo (dsDNA)", "DNA 1": "GGTTAGGGTTAGG", "DNA 2": "CCTAACCCTAACC"}}, "molecular_target": "T1, TbTRF Myb domain (Trypanosoma brucei, UniProt Q4VHG6 281-382)", "T1 sequence": "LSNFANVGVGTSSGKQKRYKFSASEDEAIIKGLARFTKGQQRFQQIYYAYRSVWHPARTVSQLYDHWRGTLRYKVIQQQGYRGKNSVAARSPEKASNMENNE", "test": "ITC", "data": [{"binder": "B1", "values": [{"measurement": "binding result", "value": "binds"}]}]}
